US20140011214A1

Tests used:
[1] = target: Antiparallel leucine zipper partner peptide Z′ fused to the C-terminal fragment of the stabilized GFP variant sg100 (Csg100GFP), expressed from pMRBAD-Z′-Csg100GFP; experiment: cell-based or functional assay
[2] = target: Antiparallel leucine zipper partner peptide Z′ fused to the C-terminal fragment of superpositive GFP (CspGFP, amino acids 158-231), expressed from pMRBAD-Z′-CspGFP; experiment: cell-based or functional assay

Q: For “N-terminal fragment of the stabilized GFP variant sg100 (Nsg100GFP) fused to antiparallel leucine zipper peptide Z, expressed from pET11a-Z-Nsg100GFP”, which mean cell fluorescence (flow cytometry), 3 hours after induction at 25° C. [1] is on record?
A: 1.2 fold

Q: What about the mean cellular fluorescence (flow cytometry) in E. coli after 12 hours at 25° C., compared to uninduced cells [1] of the same substance?
A: 2.3 fold

Q: Which results are given for “N-terminal fragment of superpositive GFP (NspGFP, amino acids 1-157) fused to antiparallel leucine zipper peptide Z, expressed from pET11a-Z-NspGFP”?
A: cell fluorescence 1 hour after induction at 25° C., against split-frGFP Z/Z′ fusions (% more fluorescent) [2]: 34; cell fluorescence after 24 hours at 37° C., against split-frGFP Z/Z′ fusions (% more fluorescent) [2]: 24; maximum mean cell fluorescence, 12 hours at 25° C., against split-frGFP Z/Z′ fusions [2]: 22 % brighter; mean cell fluorescence (flow cytometry), 1 hour after induction at 25° C. [2]: 5 fold; mean cell fluorescence (flow cytometry), 2 hours after induction at 25° C. [2]: 15 fold; mean cell fluorescence (flow cytometry), 3 hours after induction at 25° C. [2]: 28 fold; mean cellular fluorescence (flow cytometry) in E. coli after 12 hours at 25° C., compared to uninduced cells [2]: 75 fold
